According to the supplement of paper PMC7877785:
± gives the uncertainty stated by the source.

Assay: self-splicing fitness, log relative to wild type (ln ratio); higher = more splicing; Tetrahymena group I intron in knt gene, E. coli kanamycin selection, DiMSum; sequences stand for … in CUCUCU…GGAGGGAAAAGUUAUCAGGCAUGCACCUGGUAGCUAGUCUUUAAACCAAUAGAUUGCAUCGGUUUAAAAGGCAAGACCGUCAAAUUGCGGGAAAGGGGUCAACAGCCGUUCAGUACCAAGUCUCAGGGGAAACUUUGAGAUGGCCUUGCAAAGGGUAUGGUAAUAAGCUGACGGACAUGGUCCUAACCACGCAGCCAAGUCCUAAGUCAACAGAUCUUCUGUUGAUAUGGAUGCAGUUCACAGACUAAAUGUCGGUCGGGGAAGAUGUAUUCUUCUCAUAAGAUAUAGUCGGACCUCUCCUUAAUGGGAGCUAGCGGAUGAAGUGAUGCAACACUGGAGCCGCUGGGAACUAAUUUGUAUGCGAAAGUAUAUUGAUUAGUUUUGGAGUACUCGUGGUCG
In short: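 Six replicate transformations of E. coli BL21(DE3) with a pET-22b(+) library were grown overnight at 37°C or 30°C. The library randomised all eight P1ex-region intron nucleotides, the intron lying in the knt kanamycin-resistance gene, and plates were LB agar with or without 25 μg/mL kanamycin plus 100 μg/mL carbenicillin, 50 μM IPTG and 0.2% rhamnose. Pooled colonies were amplicon-sequenced on an Illumina HiSeq 2500, and fitness is the DiMSum error-weighted combination of wild-type-normalised replicate fold changes, kanamycin versus none.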

CCAGAGCAAUAUUACGGAUA
self-splicing fitness (ln) (30 °C): -3.52 ± 0.22
self-splicing fitness (ln) (37 °C): -1.91 ± 0.16

UAUCAGCAAUAUUACGUCGG
self-splicing fitness (ln) (30 °C): -1.02 ± 0.064
self-splicing fitness (ln) (37 °C): 0.0416 ± 0.082

UCUCAGCAAUAUUACGGAGA
self-splicing fitness (ln) (30 °C): -3.23 ± 0.41
self-splicing fitness (ln) (37 °C): -3.43 ± 0.39

UAUGAGCAAUAUUACGACCA
self-splicing fitness (ln) (30 °C): -2.25 ± 0.16
self-splicing fitness (ln) (37 °C): -2.07 ± 0.18

CGCGAGCAAUAUUACGAGCU
self-splicing fitness (ln) (30 °C): -3.72 ± 0.37
self-splicing fitness (ln) (37 °C): -2.22 ± 0.27

CAAGAGCAAUAUUACGAUAA
self-splicing fitness (ln) (30 °C): -3.21 ± 0.22
self-splicing fitness (ln) (37 °C): -1.79 ± 0.18

AAAGAGCAAUAUUACGGCUC
self-splicing fitness (ln) (30 °C): -2.64 ± 0.21
self-splicing fitness (ln) (37 °C): -1.67 ± 0.21

GACAAGCAAUAUUACGAGGG
self-splicing fitness (ln) (30 °C): -4.27 ± 0.18
self-splicing fitness (ln) (37 °C): -2.81 ± 0.15

CGGCAGCAAUAUUACGGUAC
self-splicing fitness (ln) (30 °C): -3.61 ± 0.49
self-splicing fitness (ln) (37 °C): -2.9 ± 0.23

CGAUAGCAAUAUUACGGCGA
self-splicing fitness (ln) (30 °C): -1.5 ± 0.25
self-splicing fitness (ln) (37 °C): -1.11 ± 0.16

UAGUAGCAAUAUUACGAUAG
self-splicing fitness (ln) (30 °C): -1.95 ± 0.35

ACGAAGCAAUAUUACGAAAC
self-splicing fitness (ln) (30 °C): -2.87 ± 0.23

GGGUAGCAAUAUUACGUCCC
self-splicing fitness (ln) (30 °C): -0.987 ± 0.29

ACGUAGCAAUAUUACGUACG
self-splicing fitness (ln) (30 °C): -2.3 ± 0.19
self-splicing fitness (ln) (37 °C): -1.35 ± 0.23

GACCAGCAAUAUUACGGUCA
self-splicing fitness (ln) (30 °C): -1.44 ± 0.099
self-splicing fitness (ln) (37 °C): -0.935 ± 0.1

CAACAGCAAUAUUACGAAGC
self-splicing fitness (ln) (30 °C): -3.45 ± 0.13
self-splicing fitness (ln) (37 °C): -2.74 ± 0.15

UACGAGCAAUAUUACGUAAA
self-splicing fitness (ln) (30 °C): -3.61 ± 0.29
self-splicing fitness (ln) (37 °C): -2.84 ± 0.26

UCAUAGCAAUAUUACGAGUA
self-splicing fitness (ln) (30 °C): -3.06 ± 0.23
self-splicing fitness (ln) (37 °C): 0.0724 ± 0.12

UAACAGCAAUAUUACGAUCU
self-splicing fitness (ln) (30 °C): -1.04 ± 0.073
self-splicing fitness (ln) (37 °C): 0.151 ± 0.099

CCCAAGCAAUAUUACGGGCA
self-splicing fitness (ln) (30 °C): -3.96 ± 0.18
self-splicing fitness (ln) (37 °C): -1.82 ± 0.11

CUUCAGCAAUAUUACGAUUU
self-splicing fitness (ln) (30 °C): -3.34 ± 0.21
self-splicing fitness (ln) (37 °C): -2.33 ± 0.18

UCUAAGCAAUAUUACGACCC
self-splicing fitness (ln) (37 °C): -0.661 ± 0.44

GGCUAGCAAUAUUACGGAAG
self-splicing fitness (ln) (30 °C): -1.13 ± 0.11
self-splicing fitness (ln) (37 °C): -0.386 ± 0.14

CCCAAGCAAUAUUACGUCUA
self-splicing fitness (ln) (30 °C): -4.2 ± 0.3
self-splicing fitness (ln) (37 °C): -2.92 ± 0.23

CCAGAGCAAUAUUACGUGCG
self-splicing fitness (ln) (30 °C): -1.59 ± 0.077
self-splicing fitness (ln) (37 °C): -0.888 ± 0.097

UUAUAGCAAUAUUACGGUGU
self-splicing fitness (ln) (30 °C): -3.63 ± 0.31
self-splicing fitness (ln) (37 °C): -2.23 ± 0.3

CUGAAGCAAUAUUACGCUAA
self-splicing fitness (ln) (37 °C): -2.45 ± 0.32

GGCGAGCAAUAUUACGGUGA
self-splicing fitness (ln) (30 °C): -2.82 ± 0.089
self-splicing fitness (ln) (37 °C): -1.39 ± 0.081

AGCGAGCAAUAUUACGUGCU
self-splicing fitness (ln) (30 °C): -4.05 ± 0.29
self-splicing fitness (ln) (37 °C): -1.41 ± 0.23

AGGUAGCAAUAUUACGCAGG
self-splicing fitness (ln) (30 °C): -3.433 ± 0.022
self-splicing fitness (ln) (37 °C): -1.88 ± 0.035

UGAGAGCAAUAUUACGAGCU
self-splicing fitness (ln) (37 °C): -2.53 ± 0.49

UGCGAGCAAUAUUACGGCUU
self-splicing fitness (ln) (30 °C): -1.76 ± 0.2
self-splicing fitness (ln) (37 °C): -2.61 ± 0.33

CCGCAGCAAUAUUACGUUGA
self-splicing fitness (ln) (30 °C): -3.59 ± 0.16
self-splicing fitness (ln) (37 °C): -3.41 ± 0.25

CUUCAGCAAUAUUACGAGAU
self-splicing fitness (ln) (30 °C): -3.35 ± 0.23
self-splicing fitness (ln) (37 °C): -2.43 ± 0.26

GGUGAGCAAUAUUACGUGAG
self-splicing fitness (ln) (30 °C): -2.73 ± 0.19
self-splicing fitness (ln) (37 °C): -1.76 ± 0.21

GAGUAGCAAUAUUACGUACG
self-splicing fitness (ln) (30 °C): -2.67 ± 0.18
self-splicing fitness (ln) (37 °C): 0.056 ± 0.13

AUAGAGCAAUAUUACGGAAC
self-splicing fitness (ln) (30 °C): -3.66 ± 0.27
self-splicing fitness (ln) (37 °C): -1.92 ± 0.24

UUUGAGCAAUAUUACGGACA
self-splicing fitness (ln) (37 °C): -2.57 ± 0.48

UGGCAGCAAUAUUACGCGCC
self-splicing fitness (ln) (37 °C): -2.9 ± 0.19

AUCUAGCAAUAUUACGUCUU
self-splicing fitness (ln) (30 °C): -0.776 ± 0.077
self-splicing fitness (ln) (37 °C): 0.147 ± 0.1

CUCCAGCAAUAUUACGUACC
self-splicing fitness (ln) (30 °C): -3.31 ± 0.29
self-splicing fitness (ln) (37 °C): -1.19 ± 0.32

GUGAAGCAAUAUUACGCCUG
self-splicing fitness (ln) (30 °C): -0.422 ± 0.091
self-splicing fitness (ln) (37 °C): 0.015 ± 0.13

CUGAAGCAAUAUUACGCGCG
self-splicing fitness (ln) (30 °C): 0.18 ± 0.092
self-splicing fitness (ln) (37 °C): -0.0678 ± 0.075

CACAAGCAAUAUUACGGCCG
self-splicing fitness (ln) (30 °C): -0.104 ± 0.077
self-splicing fitness (ln) (37 °C): 0.524 ± 0.1

UUUAAGCAAUAUUACGAGAG
self-splicing fitness (ln) (30 °C): -1.49 ± 0.11
self-splicing fitness (ln) (37 °C): -1.13 ± 0.12

UCCGAGCAAUAUUACGCUAC
self-splicing fitness (ln) (30 °C): -2.97 ± 0.38

GAUAAGCAAUAUUACGGACG
self-splicing fitness (ln) (30 °C): -1.08 ± 0.13
self-splicing fitness (ln) (37 °C): -0.201 ± 0.14

AUAAAGCAAUAUUACGGCGC
self-splicing fitness (ln) (30 °C): 0.0765 ± 0.13
self-splicing fitness (ln) (37 °C): 0.21 ± 0.14

CCGAAGCAAUAUUACGAGGC
self-splicing fitness (ln) (30 °C): -4.67 ± 0.42
self-splicing fitness (ln) (37 °C): -3.39 ± 0.29

UGCAAGCAAUAUUACGGCAA
self-splicing fitness (ln) (30 °C): 0.111 ± 0.12
self-splicing fitness (ln) (37 °C): -0.447 ± 0.12

AAUCAGCAAUAUUACGGCUG
self-splicing fitness (ln) (30 °C): -2.34 ± 0.15
self-splicing fitness (ln) (37 °C): -1.87 ± 0.2

AUGCAGCAAUAUUACGACGA
self-splicing fitness (ln) (30 °C): -0.531 ± 0.081
self-splicing fitness (ln) (37 °C): -0.65 ± 0.089

CUAGAGCAAUAUUACGGAGC
self-splicing fitness (ln) (37 °C): -3.62 ± 0.34

CCGGAGCAAUAUUACGAUUU
self-splicing fitness (ln) (30 °C): -2.51 ± 0.36
self-splicing fitness (ln) (37 °C): -2.26 ± 0.3

ACUAAGCAAUAUUACGCUGU
self-splicing fitness (ln) (30 °C): -2.77 ± 0.17
self-splicing fitness (ln) (37 °C): -2.58 ± 0.35

ACAGAGCAAUAUUACGGCUC
self-splicing fitness (ln) (30 °C): -3.09 ± 0.16
self-splicing fitness (ln) (37 °C): -2.37 ± 0.22

GAAUAGCAAUAUUACGCCAG
self-splicing fitness (ln) (30 °C): -2.58 ± 0.24
self-splicing fitness (ln) (37 °C): -1.69 ± 0.3

CGAUAGCAAUAUUACGAGGC
self-splicing fitness (ln) (30 °C): -3.66 ± 0.35
self-splicing fitness (ln) (37 °C): -1.95 ± 0.48

GCCAAGCAAUAUUACGAUGG
self-splicing fitness (ln) (30 °C): -3.61 ± 0.15
self-splicing fitness (ln) (37 °C): -1.79 ± 0.16

ACGGAGCAAUAUUACGGCAA
self-splicing fitness (ln) (30 °C): -2.98 ± 0.3
self-splicing fitness (ln) (37 °C): -2.61 ± 0.27

CGGCAGCAAUAUUACGCAUA
self-splicing fitness (ln) (30 °C): -2.08 ± 0.21
self-splicing fitness (ln) (37 °C): -1.03 ± 0.13

AUAGAGCAAUAUUACGCUAA
self-splicing fitness (ln) (30 °C): -1.33 ± 0.13
self-splicing fitness (ln) (37 °C): -0.315 ± 0.18

ACUAAGCAAUAUUACGUAAG
self-splicing fitness (ln) (30 °C): -1.05 ± 0.069
self-splicing fitness (ln) (37 °C): -0.663 ± 0.089

AUGCAGCAAUAUUACGUCGC
self-splicing fitness (ln) (30 °C): -3.69 ± 0.31
self-splicing fitness (ln) (37 °C): -2.57 ± 0.32

CCGUAGCAAUAUUACGUCGC
self-splicing fitness (ln) (30 °C): -3.45 ± 0.41
self-splicing fitness (ln) (37 °C): -1.77 ± 0.26

GCCAAGCAAUAUUACGUGCC
self-splicing fitness (ln) (30 °C): -3.36 ± 0.25
self-splicing fitness (ln) (37 °C): -0.392 ± 0.17

UGUAAGCAAUAUUACGCGUA
self-splicing fitness (ln) (30 °C): -0.832 ± 0.14
self-splicing fitness (ln) (37 °C): -0.754 ± 0.15

GCGUAGCAAUAUUACGGCCC
self-splicing fitness (ln) (30 °C): 0.00127 ± 0.32
self-splicing fitness (ln) (37 °C): -2.25 ± 0.39

GUGCAGCAAUAUUACGAGUU
self-splicing fitness (ln) (30 °C): -2.49 ± 0.15
self-splicing fitness (ln) (37 °C): -1.62 ± 0.15

GCUAAGCAAUAUUACGCUAU
self-splicing fitness (ln) (30 °C): -1.91 ± 0.14
self-splicing fitness (ln) (37 °C): -2.08 ± 0.17

AACCAGCAAUAUUACGCAUC
self-splicing fitness (ln) (30 °C): -1.98 ± 0.079
self-splicing fitness (ln) (37 °C): -0.531 ± 0.085

UGCUAGCAAUAUUACGCGCC
self-splicing fitness (ln) (30 °C): -1.26 ± 0.2
self-splicing fitness (ln) (37 °C): -0.477 ± 0.29

AAACAGCAAUAUUACGUUCG
self-splicing fitness (ln) (30 °C): -1.23 ± 0.051
self-splicing fitness (ln) (37 °C): -0.286 ± 0.068

CUCAAGCAAUAUUACGGAAG
self-splicing fitness (ln) (30 °C): -1.84 ± 0.11
self-splicing fitness (ln) (37 °C): -0.365 ± 0.12

CAAAAGCAAUAUUACGGUUG
self-splicing fitness (ln) (30 °C): -1.66 ± 0.11
self-splicing fitness (ln) (37 °C): -1.17 ± 0.14

AUAAAGCAAUAUUACGGGCC
self-splicing fitness (ln) (30 °C): -2.21 ± 0.17
self-splicing fitness (ln) (37 °C): -0.0428 ± 0.17

GCUCAGCAAUAUUACGUAUC
self-splicing fitness (ln) (30 °C): -0.849 ± 0.078
self-splicing fitness (ln) (37 °C): 0.011 ± 0.077

CAAGAGCAAUAUUACGUUCG
self-splicing fitness (ln) (30 °C): -1.27 ± 0.089
self-splicing fitness (ln) (37 °C): -0.199 ± 0.11
